The target of assay [1] is T1, Full length human integrin alpha4beta7 (expressed in 293 cells, purified by Fib504 affinity chromatography) (human, UniProt P13612 34-1032; P26010 20-798).
T1 construct: mature; also called immobilized alpha4beta7
Put plainly: SPR (BIAcore-3000), Fab immobilized, alpha4beta7 injected. As to the method:
(§1) Affinity determinations were performed by surface plasmon resonance using a BIAcore™-3000 (Biacore, Piscataway, N.J.). Humanized Fib504 Fab variants were immobilized in 10 mM acetate pH 4.5 (ranging from 250 to 1500 response units (RU)) on a CM5 sensor chip and 2-fold dilutions of human integrin alpha4beta7 (1.5 to 770 nM) in TBSM containing 2% n-octylglucoside were injected. Each sample was analyzed with 5-minute association and 5 to 60-minute dissociation times. After each injection, the chip was regenerated using three 1-minute injections of 8 M urea. Binding response was corrected by subtracting the RU from a blank flow cell. A 1:1 Languir model of simultaneous fitting of kₒₙ and koff was used for kinetics analysis.
Libraries were generated as before using a soft randomization strategy simultaneously at each of the 6 HVRs for the Fib504K-RL and Fib504K-RF grafts and sorted on immobilized alpha4beta7 for 4 rounds of selection as described above. Enrichment was only observed for the library based on the Fib504K-RF graft. […] Most clones contained the change Y32L; in addition position 31 was frequently changed to D, S, P or N (FIG. 1C). In addition to the starting graft, Fib504K-RF, 3 clones were expressed and purified as Fab protein and further analyzed by Biacore as described above. […] The results of the Biacore analysis are shown in Table 3, below, and indicate that selected variation in the HVRs and/or framework regions, disclosed herein, generated antagonist antibodies to alpha4beta7 having improved affinity relative to the starting antibody.
In general terms: In SPR one partner is held on a chip, and binding of the other changes the refractive index at the surface.

Assay [2] deals with T1, Full length human integrin alpha4beta7 …. Put plainly: phage-displayed Fab on immobilized alpha4beta7.
Assay [3] shares this target. Put plainly: BIAcore (column head 'BIAcore Affinity Assay (nM)'); per paragraph 379 the Fab was immobilised on a CM5 chip and human integrin alpha4beta7 injected. As to the method:
as §1
Libraries were generated as before using a soft randomization strategy simultaneously at each of the 6 HVRs for the Fib504K-RL and Fib504K-RF grafts and sorted on immobilized alpha4beta7 for 4 rounds of selection as described above. Enrichment was only observed for the library based on the Fib504K-RF graft. […] Most clones contained the change Y32L; in addition position 31 was frequently changed to D, S, P or N (FIG. 1C). In addition to the starting graft, Fib504K-RF, 3 clones were expressed and purified as Fab protein and further analyzed by Biacore as described above. […]

Assay [4] has as its target T2, alpha4beta7 on 38C13 alpha4+ murine lymphoma cells transfected with integrin beta7 (38C13beta7 cells) (murine, UniProt Q00651 41-1039; P26011 20-806).
T2 construct: whole, on cells; also called 38C13-beta7 expressing cells; murine beta7-containing receptor
Put plainly: cell adhesion inhibition, 38C13beta7 cells on coated muMAdCAM-1-Ig, experiment 1 of 2. As to the method: (§2) RPMI8866/MAdCAM-1-Ig Cell Adhesion: RPMI8866 cells express alpha4beta7 on their surface (Roswell Park Memorial Institute, Buffalo, N.Y.). Humanized Fib504 variants (hu504 variants) were contacted with a mixture of RMPI8866 cells and MAdCAM fused to IgG coated on a solid support. […] After blocking the plates with 200 ul/well of 5 mg/ml BSA for one hour at room temperature, 50 μl of humanized Fib504 variants in assay media (RPMI 1640 media, Hyclone®, Logan Utah, USA, supplemented with 5 mg/mL BSA) were added to each well and 150,000 BCECF-labeled cells (BCECF, Molecular Probes, Eugene, Oreg.) in 50 μl of assay media were added to each well and incubated for 15 minutes at 37° C. The wells were washed two times with 150 μl of assay media to remove unbound cells. The bound cells were solubilized with 100 μl of 0.1% SDS in 50 mM Tris/HCl pH7.5. The amount of fluorescence released from lysed cells was measured by SPECTRAmax GEMINI™ (Molecular Devices, Sunnyvale, Calif.) at 485 nm excitation 530 nm emission wavelengths. The fluorescence values were analyzed as a function of the concentrations of the humanized Fib504 variants added in each assay, using a four-parameter nonlinear least squares fit, to obtain the IC₅₀ values of each humanized Fib504 variant in the assay. IC₅₀ and IC₉₀ values were estimated from the four-parameter fit. FIG. 14 is an exemplary plot of the results. The IC₉₀ and IC₅₀ values for each of the variants tested are shown below in Table 4.
(§3) 38C13beta7/muMAdCAM-1-Ig Cell Adhesion Assay: The 38C13beta7/muMAdCAM-1-Ig assay was similar format to the RPMI8866/MAdCAM-1-Ig except that muMAdCAM-1-Ig (Genentech, Inc.) was used at 2 μg/ml to coat plates. 38C13 alpha4+ murine lymphoma cells (Crowe, D. T. et al., J. Biol. Chem. 269:14411-14418 (1994)) were transfected with DNA encoding integrin beta7 such that alpha4beta7 was expressed on the cell surface. The ability of the antibodies variants to disrupt interaction between the cell membrane associated alpha4beta7 and MAdCAM was performed as above.

The target of assay [5] is T2, alpha4beta7 on 38C13 alpha4+ murine …. Put plainly: cell adhesion inhibition, 38C13beta7 cells on coated muVCAM-1-Ig, experiment 2 of 2. As to the method:
as §2
(§4) 38C13beta7/muVCAM-1-Ig Cell Adhesion Assay: The 38C13beta7/muVCAM-1-Ig assay was performed according to the murine MAdCAM-1-Ig/RPMI8866 cell binding assay above, except that muVCAM-1-Ig (Genentech, Inc.) was used at 2 μg/ml to coat plates. (IC₅₀ and IC₉₀ values for 2 experiments are shown).

Assay [6] concerns the target T3, human alpha4beta7 receptor on RPMI8866 cells (human, UniProt P13612 34-1032; P26010 20-798).
T3 construct: whole, on cells; also called alpha4beta7 on RPMI8866
Put plainly: cell adhesion inhibition, RPMI8866 cells on coated 7dVCAM-1, Exp 1. As to the method:
as §2
(§5) RPMI8866/7dVCAM-1 Cell Adhesion: The RPMI8866/7dVCAM-1 assay is similar format to the RPMI8866/MAdCAM-1-Ig except that 7dVCAM-1 (ADP5, R&D Systems, Minneapolis, Minn.) was used at 2 ug/ml to coat plates. The results were analyzed as described above for the MAdCAM binding experiments. The IC₅₀ values for each of the variants tested are shown below in Table 5.

For assay [7], the target named is T4, alphaEbeta7 on alphaEbeta7-transfected 293 cells (human, UniProt P38570 19-1179; P26010 20-798).
T4 construct: whole, on cells; also called alphaEbeta7 293 cells
T4 sequence (P38570 19-1179, chain 1 of 2): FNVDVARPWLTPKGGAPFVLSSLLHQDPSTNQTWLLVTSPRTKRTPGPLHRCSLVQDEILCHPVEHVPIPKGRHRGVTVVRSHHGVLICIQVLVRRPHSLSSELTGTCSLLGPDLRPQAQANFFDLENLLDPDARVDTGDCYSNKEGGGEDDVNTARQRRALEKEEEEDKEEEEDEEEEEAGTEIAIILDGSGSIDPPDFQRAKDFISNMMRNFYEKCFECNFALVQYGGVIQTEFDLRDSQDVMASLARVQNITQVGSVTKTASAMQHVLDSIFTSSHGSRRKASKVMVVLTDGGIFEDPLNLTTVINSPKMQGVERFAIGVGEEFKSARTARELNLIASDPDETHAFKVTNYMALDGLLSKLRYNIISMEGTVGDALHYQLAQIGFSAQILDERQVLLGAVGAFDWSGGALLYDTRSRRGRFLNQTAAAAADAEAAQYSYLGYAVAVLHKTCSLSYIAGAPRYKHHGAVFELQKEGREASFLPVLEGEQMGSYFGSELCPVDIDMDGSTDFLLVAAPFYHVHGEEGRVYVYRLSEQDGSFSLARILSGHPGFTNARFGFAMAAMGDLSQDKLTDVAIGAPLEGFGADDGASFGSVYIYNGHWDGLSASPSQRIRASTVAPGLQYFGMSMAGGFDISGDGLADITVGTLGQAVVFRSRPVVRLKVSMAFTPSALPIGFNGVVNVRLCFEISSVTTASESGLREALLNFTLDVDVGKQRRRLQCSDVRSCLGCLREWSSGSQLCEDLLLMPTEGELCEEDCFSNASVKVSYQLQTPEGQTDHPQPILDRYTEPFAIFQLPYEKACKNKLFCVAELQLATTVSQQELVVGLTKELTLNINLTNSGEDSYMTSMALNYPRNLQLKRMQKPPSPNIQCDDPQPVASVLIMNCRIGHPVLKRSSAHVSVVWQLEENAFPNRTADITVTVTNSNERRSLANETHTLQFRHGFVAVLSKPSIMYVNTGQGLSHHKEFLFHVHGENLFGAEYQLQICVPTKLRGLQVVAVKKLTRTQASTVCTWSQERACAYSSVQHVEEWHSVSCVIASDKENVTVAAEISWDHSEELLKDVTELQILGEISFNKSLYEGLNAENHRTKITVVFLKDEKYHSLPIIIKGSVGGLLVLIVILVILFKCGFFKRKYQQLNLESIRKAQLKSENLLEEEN
T4 sequence (P26010 20-798, chain 2 of 2): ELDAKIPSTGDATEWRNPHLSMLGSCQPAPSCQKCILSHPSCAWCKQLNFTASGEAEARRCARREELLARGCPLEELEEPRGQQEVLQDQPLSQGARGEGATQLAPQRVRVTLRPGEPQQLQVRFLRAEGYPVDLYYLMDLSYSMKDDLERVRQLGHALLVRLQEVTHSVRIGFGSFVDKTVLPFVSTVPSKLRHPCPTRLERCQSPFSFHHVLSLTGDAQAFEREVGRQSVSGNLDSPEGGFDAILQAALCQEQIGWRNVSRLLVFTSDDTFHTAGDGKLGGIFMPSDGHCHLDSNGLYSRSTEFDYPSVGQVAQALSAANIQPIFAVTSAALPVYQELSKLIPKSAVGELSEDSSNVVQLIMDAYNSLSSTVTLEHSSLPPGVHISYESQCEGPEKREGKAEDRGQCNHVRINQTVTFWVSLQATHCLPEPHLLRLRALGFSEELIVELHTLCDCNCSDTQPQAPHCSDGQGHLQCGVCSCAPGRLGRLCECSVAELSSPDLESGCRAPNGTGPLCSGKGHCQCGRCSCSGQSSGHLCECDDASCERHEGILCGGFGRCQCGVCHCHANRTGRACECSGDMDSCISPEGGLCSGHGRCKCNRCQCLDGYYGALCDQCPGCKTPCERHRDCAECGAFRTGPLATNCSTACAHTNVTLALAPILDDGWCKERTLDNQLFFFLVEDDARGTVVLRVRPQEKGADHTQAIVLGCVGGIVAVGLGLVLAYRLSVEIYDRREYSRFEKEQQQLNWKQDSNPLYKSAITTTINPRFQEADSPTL
The assay is described as follows: cell adhesion inhibition, alphaEbeta7 293 cells on coated huE-Cadherin, experiment 3 of 3. As to the method: (§6) After blocking the plates with 200 ul/well of 5 mg/ml BSA for one hour at room temperature, 50 μl of humanized Fib504 variants in assay media (RPMI 1640 media, Hyclone®, Logan Utah, USA, supplemented with 5 mg/mL BSA) were added to each well and 150,000 BCECF-labeled cells (BCECF, Molecular Probes, Eugene, Oreg.) in 50 μl of assay media were added to each well and incubated for 15 minutes at 37° C. The wells were washed two times with 150 μl of assay media to remove unbound cells. The bound cells were solubilized with 100 μl of 0.1% SDS in 50 mM Tris/HCl pH7.5. The amount of fluorescence released from lysed cells was measured by SPECTRAmax GEMINI™ (Molecular Devices, Sunnyvale, Calif.) at 485 nm excitation 530 nm emission wavelengths. The fluorescence values were analyzed as a function of the concentrations of the humanized Fib504 variants added in each assay, using a four-parameter nonlinear least squares fit, to obtain the IC₅₀ values of each humanized Fib504 variant in the assay. IC₅₀ and IC₉₀ values were estimated from the four-parameter fit. FIG. 14 is an exemplary plot of the results. The IC₉₀ and IC₅₀ values for each of the variants tested are shown below in Table 4.
(§7) The assay format is similar to the RPMI8866/MAdCAM-1-Ig assay except that the huE-Cadherin (648-EC, R&D Systems, Minneapolis, Minn.) was used at 2 μg/ml to coat the plates. Plates were then blocked with 5 mg/ml BSA as mentioned above and 50 μl of FIB504 variants in assay media (F-12:DMEM (50:50) supplemented with 5 mg/ml BSA) were add to each well and 110,000 BCECF labeled cells in 50 ul of assay media were added to each well and incubated for 15 minutes at 37° C. The wells were washed two times with 150 μl of assay media and the amount of fluorescence released by lysed cells was measured and analyzed as described above.

The target of assay [8] is T3, human alpha4beta7 receptor on RPMI8866 …. Put plainly: cell adhesion inhibition, RPMI8866 cells on coated 7dVCAM-1, Exp 2. As to the method: as §2, §5
The target is the same in assay [9]. Put plainly: cell adhesion inhibition, RPMI8866 cells on coated MAdCAM-1-Ig, Exp 1. As to the method:
as §2

The target of assay [10] is T4, alphaEbeta7 on alphaEbeta7-transfected …. Put plainly: cell adhesion inhibition, alphaEbeta7 293 cells on coated huE-Cadherin, experiment 2 of 3. As to the method:
as §6, §7

For assay [11], the target named is T3, human alpha4beta7 receptor on RPMI8866 …. Put plainly: cell adhesion inhibition, RPMI8866 cells on coated MAdCAM-1-Ig, Exp 2. As to the method: as §2
Assay [12] addresses T4, alphaEbeta7 on alphaEbeta7-transfected …. Put plainly: cell adhesion inhibition, alphaEbeta7 293 cells on coated huE-Cadherin, experiment 1 of 3. As to the method: as §6, §7
Assay [13] addresses T2, alpha4beta7 on 38C13 alpha4+ murine …. The assay is described as follows: cell adhesion inhibition, 38C13beta7 cells on coated muMAdCAM-1-Ig, experiment 2 of 2. As to the method:
as §2, §3

The target is the same in assay [14]. Put plainly: cell adhesion inhibition, 38C13beta7 cells on coated muVCAM-1-Ig, experiment 1 of 2. As to the method: as §2, §4

Substitutions are numbered along the chain they refer to.

A word on the Kd: it is the equilibrium constant for the complex coming apart. The low end stands for higher affinity, the high end for lower affinity. The IC50 is the concentration at which inhibition is half-maximal. Low readings indicate greater potency in that assay, high ones weaker potency in that assay. For orientation: IC90 means the concentration at which the effect reaches the 90% level. Read a low IC90 as an effect from little substance.

T2 sequence (Q00651 41-1039, chain 1 of 2): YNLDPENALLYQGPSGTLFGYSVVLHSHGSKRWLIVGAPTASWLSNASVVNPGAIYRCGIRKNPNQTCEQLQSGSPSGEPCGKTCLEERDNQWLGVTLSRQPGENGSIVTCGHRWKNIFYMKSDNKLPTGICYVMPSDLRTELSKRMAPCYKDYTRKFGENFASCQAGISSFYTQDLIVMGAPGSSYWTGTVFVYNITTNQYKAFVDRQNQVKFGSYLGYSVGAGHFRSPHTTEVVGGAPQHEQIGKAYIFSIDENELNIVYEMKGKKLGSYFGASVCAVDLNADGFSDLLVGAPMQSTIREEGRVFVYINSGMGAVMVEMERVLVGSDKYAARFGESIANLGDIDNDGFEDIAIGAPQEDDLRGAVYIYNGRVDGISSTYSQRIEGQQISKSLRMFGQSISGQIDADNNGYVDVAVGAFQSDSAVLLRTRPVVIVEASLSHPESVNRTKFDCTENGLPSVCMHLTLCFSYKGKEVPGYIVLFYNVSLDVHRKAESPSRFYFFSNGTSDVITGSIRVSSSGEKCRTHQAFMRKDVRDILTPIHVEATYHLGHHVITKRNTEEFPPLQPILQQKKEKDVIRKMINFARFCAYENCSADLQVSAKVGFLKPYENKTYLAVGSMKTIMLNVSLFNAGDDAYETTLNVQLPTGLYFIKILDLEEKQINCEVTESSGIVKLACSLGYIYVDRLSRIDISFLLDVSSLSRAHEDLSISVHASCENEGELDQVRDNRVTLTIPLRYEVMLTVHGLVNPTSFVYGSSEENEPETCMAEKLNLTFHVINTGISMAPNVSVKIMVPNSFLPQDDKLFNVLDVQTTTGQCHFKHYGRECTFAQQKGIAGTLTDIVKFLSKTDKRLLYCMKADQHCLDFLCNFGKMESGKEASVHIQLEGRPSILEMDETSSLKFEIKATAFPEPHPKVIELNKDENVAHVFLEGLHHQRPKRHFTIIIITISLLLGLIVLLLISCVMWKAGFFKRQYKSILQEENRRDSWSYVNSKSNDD
T2 sequence (P26011 20-806, chain 2 of 2): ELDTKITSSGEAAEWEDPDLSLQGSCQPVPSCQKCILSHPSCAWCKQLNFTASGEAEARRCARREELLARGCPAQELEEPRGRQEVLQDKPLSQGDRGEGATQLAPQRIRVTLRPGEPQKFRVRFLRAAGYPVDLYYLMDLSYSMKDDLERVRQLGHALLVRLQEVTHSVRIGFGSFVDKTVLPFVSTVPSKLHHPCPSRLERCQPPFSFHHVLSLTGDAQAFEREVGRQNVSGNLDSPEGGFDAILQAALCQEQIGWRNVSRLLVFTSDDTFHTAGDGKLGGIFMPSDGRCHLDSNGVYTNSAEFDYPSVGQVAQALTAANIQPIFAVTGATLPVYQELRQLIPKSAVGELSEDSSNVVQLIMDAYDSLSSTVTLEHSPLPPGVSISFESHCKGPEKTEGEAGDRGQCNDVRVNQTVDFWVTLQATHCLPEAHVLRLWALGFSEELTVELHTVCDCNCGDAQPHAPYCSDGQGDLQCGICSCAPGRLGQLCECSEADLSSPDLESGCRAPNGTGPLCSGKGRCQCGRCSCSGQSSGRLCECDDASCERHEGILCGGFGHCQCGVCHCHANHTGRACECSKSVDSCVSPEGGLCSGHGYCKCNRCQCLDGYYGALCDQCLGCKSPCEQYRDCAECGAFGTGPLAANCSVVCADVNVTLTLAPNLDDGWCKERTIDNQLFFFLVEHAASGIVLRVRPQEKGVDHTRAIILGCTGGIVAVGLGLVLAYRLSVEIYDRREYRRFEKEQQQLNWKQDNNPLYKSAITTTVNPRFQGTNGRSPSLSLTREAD
T1 sequence (P13612 34-1032, chain 1 of 2): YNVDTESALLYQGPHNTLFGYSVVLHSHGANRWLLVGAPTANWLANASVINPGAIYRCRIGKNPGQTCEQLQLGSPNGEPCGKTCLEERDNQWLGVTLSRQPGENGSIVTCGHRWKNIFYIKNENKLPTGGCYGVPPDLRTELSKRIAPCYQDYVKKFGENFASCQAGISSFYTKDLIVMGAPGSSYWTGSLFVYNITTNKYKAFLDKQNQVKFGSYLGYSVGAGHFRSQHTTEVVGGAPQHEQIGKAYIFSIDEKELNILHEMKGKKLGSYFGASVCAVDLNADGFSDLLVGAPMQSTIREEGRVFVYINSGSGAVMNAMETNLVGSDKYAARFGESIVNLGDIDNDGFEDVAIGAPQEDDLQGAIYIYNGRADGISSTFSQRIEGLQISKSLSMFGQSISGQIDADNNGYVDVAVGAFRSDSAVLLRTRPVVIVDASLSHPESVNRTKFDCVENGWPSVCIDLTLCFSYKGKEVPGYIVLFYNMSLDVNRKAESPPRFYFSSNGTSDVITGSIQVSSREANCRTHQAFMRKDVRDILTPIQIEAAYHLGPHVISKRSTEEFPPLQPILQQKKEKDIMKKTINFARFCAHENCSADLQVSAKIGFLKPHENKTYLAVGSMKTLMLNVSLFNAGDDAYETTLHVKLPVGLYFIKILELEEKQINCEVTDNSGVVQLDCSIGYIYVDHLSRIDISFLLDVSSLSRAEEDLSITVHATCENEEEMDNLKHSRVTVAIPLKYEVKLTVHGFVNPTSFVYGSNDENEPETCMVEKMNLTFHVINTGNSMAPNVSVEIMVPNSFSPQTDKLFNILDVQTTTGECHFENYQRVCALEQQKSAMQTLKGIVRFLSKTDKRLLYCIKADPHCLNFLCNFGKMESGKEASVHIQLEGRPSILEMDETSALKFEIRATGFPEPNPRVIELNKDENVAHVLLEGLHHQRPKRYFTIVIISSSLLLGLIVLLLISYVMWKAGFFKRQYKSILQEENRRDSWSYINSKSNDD
T1 sequence (P26010 20-798, chain 2 of 2): as the sequence (P26010 20-798, chain 2 of 2) above
T3 sequence (P13612 34-1032, chain 1 of 2): as the sequence (P13612 34-1032, chain 1 of 2) above
T3 sequence (P26010 20-798, chain 2 of 2): as the sequence (P26010 20-798, chain 2 of 2) above

B1: chimeric Fib504 Fab (Fab, V domains shown)
VH: EVQLQESGPGLVKPSQSLSLTCSVTGFFITNNYWGWIRKFPGNKMEWMGYISYSGSTSYNPSLKSRISITRDTSKNQFFLQLNSVTTEDTATYYCAMTGSSGYFDFWGPGTMVTVSS
VL: DVVMTQSPATLSVTPGERISLSCRASESVDTYLHWYQQKPNESPRLLIKYASQSISGIPSRFSGSGSGTDFTLSINGVELEDLSIYYCQQGNSLPNTFGAGTKLELKR
notes: Rat Fib504 variable domains in a chimeric Fab; the constant domains are not specified
Consider B1, for which, in [1], binding was put at a Kd of 11 nM.

B2: Fib504 Kgraft (HVR graft that also includes VL position 49K), Fab displayed on phage (Fab, V domains shown)
VH: EVQLVESGGGLVQPGGSLRLSCAASGFFITNNYWGWVRQAPGKGLEWVGYISYSGSTSYNPSLKSRFTISADTSKNTAYLQMNSLRAEDTAVYYCAMTGSSGYFDFWGQGTLVTVSS
VL: DIQMTQSPSSLSASVGDRVTITCRASESVDTYLHWYQQKPGKAPKLLIKYASQSISGVPSRFSGSGSGTDFTLTISSLQPEDFATYYCQQGNSLPNTFGQGTKVEIKR
notes: Tested as Fab on phage; also called hu504 Kgraft; hu504K graft
In the case of B2, the binding result in [2] was “no binding”.

B3: Variant hu504.5, Fab (Fab, name in Kabat numbering, V domains shown)
VH: B2 VH with A71R, A78F
VL: B2 VL with T31S, Y32L
notes: Tested as Fab; also called Variant 504.5
Turning to B3, the affinity in [1], expressed as Kd, was 9 nM. This lies in the single-digit nanomolar range.

B4: Variant hu504.16, Fab (Fab, name in Kabat numbering, V domains shown)
VH: B2 VH with A71R, A78F
VL: B2 VL with Y32L
notes: Clone from the Fib504K-RF library with an HVR-L1 change; Tested as Fab; also called Variant 504.16
B4: the Kd in assay [1] came out at 23 nM; in [3], 23.4 nM.

B5: Variant hu504.16, IgG (antibody, name in Kabat numbering, V domains shown)
VH: B2 VH with A71R, A78F
VL: B2 VL with Y32L
For the molecule B5, the IC50 in [4] came to 0.998 nM; in assay [5] it was 0.584 nM; in assay [6], 0.098 nM; in assay [7], 4.58 nM; in assay [8] it was 0.223 nM; in [9], 0.0768 nM. Besides, the IC50 in assay [10] was found to be 10.1 nM; in [11], 0.206 nM; in assay [12], 1.96 nM; in [13], 0.61 nM; in assay [14], 0.835 nM. Also, the IC90 stood at 3.72 nM in [4]; 1.84 nM in assay [5]; 0.261 nM in assay [6]; 13.5 nM in [7]; 0.774 nM in [8]; 0.244 nM in assay [9]. Further, the 90% effect concentration (IC90) in [10] stood at 33.7 nM; in assay [11], 0.551 nM; in assay [12], 7.03 nM; in [13], 4.08 nM; in assay [14], 2.86 nM.

B6: Fib504 graft (direct HVR graft of rat Fib504 into the human acceptor framework), Fab displayed on phage (Fab, V domains shown)
VH: B2 VH
VL: B2 VL with K49Y
notes: Tested as monovalent Fab-g3 on phage (VH-CH1 fused to truncated P3); also called hu504 graft; humanized504 graft
B6: the binding result in [2] is “no binding”.

Source of the values: patent publication US20090226437A1 (Genentech, published 2009).
